Source: patent publication US20250376536A1 (Bristol-Myers Squibb, published 2025)

Molecular target: T1, soluble FAP (human, UniProt Q12884 26-760, limits assumed)
T1 sequence: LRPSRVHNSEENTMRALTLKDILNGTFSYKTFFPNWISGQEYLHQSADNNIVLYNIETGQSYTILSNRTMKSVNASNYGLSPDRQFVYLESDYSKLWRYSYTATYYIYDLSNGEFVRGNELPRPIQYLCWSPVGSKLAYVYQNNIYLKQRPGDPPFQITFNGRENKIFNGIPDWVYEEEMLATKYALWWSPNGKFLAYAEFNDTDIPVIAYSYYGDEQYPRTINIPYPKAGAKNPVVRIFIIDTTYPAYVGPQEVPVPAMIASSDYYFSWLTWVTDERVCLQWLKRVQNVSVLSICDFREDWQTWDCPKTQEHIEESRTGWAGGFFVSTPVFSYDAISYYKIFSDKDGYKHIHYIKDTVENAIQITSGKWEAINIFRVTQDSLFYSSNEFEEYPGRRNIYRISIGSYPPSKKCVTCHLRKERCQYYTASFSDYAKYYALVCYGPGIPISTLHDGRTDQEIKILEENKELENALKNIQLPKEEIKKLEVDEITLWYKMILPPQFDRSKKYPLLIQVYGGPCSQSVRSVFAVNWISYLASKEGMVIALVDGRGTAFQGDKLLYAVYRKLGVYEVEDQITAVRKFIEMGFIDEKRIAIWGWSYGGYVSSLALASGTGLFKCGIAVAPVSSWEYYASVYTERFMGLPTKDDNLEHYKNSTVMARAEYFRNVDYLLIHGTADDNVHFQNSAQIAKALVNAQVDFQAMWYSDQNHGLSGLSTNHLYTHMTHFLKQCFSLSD
Test: cell-based or functional assay

B1: CD40.9H3×FAP.LP62 bispecific antibody (bispecific antibody, human IgG1, kappa, L234A L235A)
heavy 1: EVQLVESGGGLVQPGGSLRLSCAASGFTFIGYSMNWVRQAPGKGLEWVSYISSYESTIYYADSVKGRFTISRDNAKNSLYLQMNSLRAEDTAVYYCARSRITLVRGVPRYFDLWGRGTLVTVSSASTKGPSVFPLAPSSKSTSGGTAALGCLVKDYFPEPVTVSWNSGALTSGVHTFPAVLQSSGLYSLSSVVTVPSSSLGTQTYICNVNHKPSNTKVDKKVEPKSCDKTHTCPPCPAPEAAGGPSVFLFPPKPKDTLMISRTPEVTCVVVSVSHEDPEVKFNWYVDGVEVHNAKTKPREEQYNSTYRVVSVLTVLHQDWLNGKEYKCKVSNKALPAPIEKTISKAKGQPREPQVYVLPPSREEMTKNQVSLLCLVKGFYPSDIAVEWESNGQPENNYLTWPPVLDSDGSFFLYSKLTVDKSRWQQGNVFSCSVMHEALHNHYTQKSLSLSPG
heavy 2: EVQLVESGGGLVQPGGSLRLSCAASGFTFIGYSMNWVRQAPGKGLEWVSYISSYESTIYYADSVKGRFTISRDNAKNSLYLQMNSLRAEDTAVYYCARSRITLVRGVPRYFDLWGRGTLVTVSSASTKGPSVFPLAPSSKSTSGGTAALGCLVKDYFPEPVTVSWNSGALTSGVHTFPAVLQSSGLYSLSSVVTVPSSSLGTQTYICNVNHKPSNTKVDKKVEPKSCDKTHTCPPCPAPEAAGGPSVFLFPPKPKDTLMISRTPEVTCVVVSVSHEDPEVKFNWYVDGVEVHNAKTKPREEQYNSTYRVVSVLTVLHQDWLNGKEYKCKVSNKALPAPIEKTISKAKGQPREPQVYVYPPSREEMTKNQVSLTCLVKGFYPSDIAVEWESNGQPENNYKTTPPVLDSDGSFALVSKLTVDKSRWQQGNVFSCSVMHEALHNHYTQKSLSLSPGGGSGGGGSGGGGSGGGGSEVQLLESGGGLVQPGGSLRLSCAASGFTFSSRGMSWVRQAPGKCLEWVSFISSSGTYVYYADSVKGRFTISRDNSKNTLYLQMNSLRAEDTAVYYCARDLPRTGVYFGMDVWGQGTTVTVSSGGGGSGGGGSGGGGSGGGGSDIQMTQSPSSLSASVGDRVTITCRASQSIFNYLNWYQQKPGKAPKLLIYGASTLQSGVPSRFSGSGSGTDFTLTISSLQPEDFATYYCQESYSTPYTFGCGTKVEIK
light: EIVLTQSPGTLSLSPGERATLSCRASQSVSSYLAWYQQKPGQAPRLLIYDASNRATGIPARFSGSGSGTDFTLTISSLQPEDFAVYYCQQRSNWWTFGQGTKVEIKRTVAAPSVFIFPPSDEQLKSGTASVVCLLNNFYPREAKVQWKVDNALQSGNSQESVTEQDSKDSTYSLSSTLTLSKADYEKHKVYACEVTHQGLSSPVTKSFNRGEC
notes: 2+1 format: two anti-CD40 9H3 Fabs on an IgG1 Fc with L234A, L235A, D265S and heterodimerization mutations; Ratio 1:1:2
With B1 the “fold reduction in potency of IL12p40 secretion with 120 ng/mL soluble FAP” value was 4.2 fold and the “fold reduction in potency of IL12p40 secretion with 480 ng/mL soluble FAP” value was 7.5 fold.
